The target in assay [1] is FcγRIIb, soluble extracellular domain (UniProt P31994). In words: SPR; IIb-Fold/IIaR-Fold (FcγRIIb against FcγRIIaR), vs. wild-type v16463.
Target sequence in this assay (P31994 other isoform, or with tags, fused parts or gaps): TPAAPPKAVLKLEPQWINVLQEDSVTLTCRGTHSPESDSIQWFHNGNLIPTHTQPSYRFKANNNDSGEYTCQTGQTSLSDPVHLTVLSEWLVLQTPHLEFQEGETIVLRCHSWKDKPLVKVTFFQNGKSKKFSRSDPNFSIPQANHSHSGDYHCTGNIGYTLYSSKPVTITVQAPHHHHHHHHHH
For assay [2] the target is unchanged. In words: SPR (General Methods Protocol 2): one-armed antibody captured on immobilised HER2, soluble receptor as analyte.
Target sequence in this assay (P31994 other isoform, or with tags, fused parts or gaps): as above
In assay [3] the target is FcγRIIaR, soluble extracellular domain (UniProt P12318). Described as above.
Target sequence in this assay (P12318 other isoform, or with tags, fused parts or gaps): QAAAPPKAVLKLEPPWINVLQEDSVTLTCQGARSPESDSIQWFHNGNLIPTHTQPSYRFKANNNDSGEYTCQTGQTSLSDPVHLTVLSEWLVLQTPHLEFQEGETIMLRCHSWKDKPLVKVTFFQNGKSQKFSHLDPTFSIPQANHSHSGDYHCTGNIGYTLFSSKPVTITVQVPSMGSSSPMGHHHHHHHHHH
The target of assay [4] is FcγRIIb, soluble extracellular domain (UniProt P31994). In words: SPR; fold change in affinity over wild-type v16463. (In general: Surface plasmon resonance follows binding to a sensor surface in real time, without labels.)
Target sequence in this assay (P31994 other isoform, or with tags, fused parts or gaps): as the sequence (P31994 other isoform, or with tags, fused parts or gaps) above
For assay [5], the target named is FcγRIIaR, soluble extracellular domain (UniProt P12318). In words: SPR; fold change in affinity over wild-type v16463.
Target sequence in this assay (P12318 other isoform, or with tags, fused parts or gaps): as the sequence (P12318 other isoform, or with tags, fused parts or gaps) above
Assay [6] concerns the target FcγRIIb, soluble extracellular domain (UniProt P31994). In words: SPR; IIb-Fold/IIaR-Fold (FcγRIIb against FcγRIIaR), relative to control v27293.
Target sequence in this assay (P31994 other isoform, or with tags, fused parts or gaps): as the sequence (P31994 other isoform, or with tags, fused parts or gaps) above
Assay [7] shares this target. In words: SPR; fold change in affinity over control v27293 (Strategy 1 Launching Module).
Target sequence in this assay (P31994 other isoform, or with tags, fused parts or gaps): as above
The target of assay [8] is FcγRIIaR, soluble extracellular domain (UniProt P12318). Described as above.
Target sequence in this assay (P12318 other isoform, or with tags, fused parts or gaps): as the sequence (P12318 other isoform, or with tags, fused parts or gaps) above
Assay [9] deals with FcγRIIb, soluble extracellular domain (UniProt P31994). In words: SPR; IIb-Fold/IIaR-Fold relative to control v27294.
Target sequence in this assay (P31994 43-217): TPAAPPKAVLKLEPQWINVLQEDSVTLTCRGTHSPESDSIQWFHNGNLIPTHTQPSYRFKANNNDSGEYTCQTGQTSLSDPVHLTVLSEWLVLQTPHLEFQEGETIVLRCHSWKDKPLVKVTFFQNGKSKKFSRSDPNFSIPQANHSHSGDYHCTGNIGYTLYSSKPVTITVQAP
Assay [10] has the same target. In words: SPR (Biacore 4000, Protocol 2): antibody captured on immobilised HER2, soluble receptor as analyte.
Target sequence in this assay (P31994 43-217): as above
Assay [11] concerns the target FcγRIIaR, soluble extracellular domain (UniProt P12318). Described as above.
Target sequence in this assay (P12318 34-217): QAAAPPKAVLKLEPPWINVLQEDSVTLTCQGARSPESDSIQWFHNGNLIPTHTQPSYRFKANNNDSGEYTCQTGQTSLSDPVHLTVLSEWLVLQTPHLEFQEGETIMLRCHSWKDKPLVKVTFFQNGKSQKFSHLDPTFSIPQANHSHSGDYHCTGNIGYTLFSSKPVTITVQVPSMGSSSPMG
Assay [12] deals with FcγRIIb, soluble extracellular domain (UniProt P31994). In words: SPR; fold change in FcγRIIb affinity over WT v16463.
Target sequence in this assay (P31994 43-217): as the sequence (P31994 43-217) above
Assay [13] concerns the target FcγRIIaR, soluble extracellular domain (UniProt P12318). In words: SPR; fold change in FcγRIIaR affinity over WT v16463.
Target sequence in this assay (P12318 34-217): as the sequence (P12318 34-217) above
The target of assay [14] is FcγRIIb, soluble extracellular domain (UniProt P31994). In words: SPR; FcγRIIb affinity fold relative to control v27294.
Target sequence in this assay (P31994 43-217): as the sequence (P31994 43-217) above
Assay [15] addresses FcγRIIaR, soluble extracellular domain (UniProt P12318). In words: SPR; FcγRIIaR affinity fold relative to control v27294.
Target sequence in this assay (P12318 34-217): as the sequence (P12318 34-217) above
In assay [16] the target is FcγRIIb, soluble extracellular domain (UniProt P31994). In words: SPR; IIb-Fold/IIaR-Fold (FcγRIIb over FcγRIIaR, vs WT v16463).
Target sequence in this assay (P31994 43-217): as the sequence (P31994 43-217) above

pKd: −log10 of the molar value.

For orientation: pKd means the negative decadic logarithm of the Kd, by convention in mol/L. “Variant 27293, Strategy 1 Launching Module 1 (A_G236N_G237A / B_G236D_G237F_S239D_S267V_H268D_Template 1), one-armed trastuzumab antibody”: the IIb/IIaR Selectivity vs. WT in assay [1] came out at 11.8 fold. Besides, the pKd in assay [2] is 8.46; in [3] it was 8.06. Also, the IIb-Fold vs. WT in assay [4] is 415 fold. In [5], this substance had an IIaR-Fold vs. WT of 35 fold. Also, in assay [6], the IIb/IIaR Selectivity vs. Control was found to be 1 fold. In addition, in assay [7], the IIb-Fold vs. Control was 1 fold. This substance had an IIaR-Fold vs. Control in assay [8] of 1 fold.

With “Variant 26725 (A_D270K_strat2), one-armed trastuzumab antibody with heterodimeric IgG1 Fc”, in assay [9], the IIb Selectivity Fold wrt Control is 0.9 fold. The figures for the pKd in [10] and in [11] were 7.22 and 6.80, respectively. Also, the IIb-Fold in [12] turned out to be 24.1 fold. Further, in assay [13], the IIaR-fold was determined as 1.9 fold. The same substance displayed an IIb-Fold wrt Control in [14] of 0.3 fold. Moreover, the IIaR-Fold wrt Control in [15] came to 0.3 fold. The same substance registered an IIb Selectivity in [16] of 12.5 fold.

The values are drawn from US20240294646A1.
